# According to patent US20230049529A1 (ALNYLAM PHARMACEUTICALS, published 2023):
# B1: Anti-BCMA DVD-IgG1 (2) (antibody)
# light: DIQMTQSPSSLSASVGDRVTITCSASQDISNYLNWYQQKPGKAPKLLIYYTSNLHSGVPSRFSGSGSGTDFTLTISSLQPEDFATYYCQQYRKLPWTFGQGTKLEIKASTKGPELQMTQSPSSLSASVGDRVTITCRSSQSLLHTYGSPYLNWYLQKPGQSPKLLIYKVSNRFSGVPSRFSGSGSGTDFTLTISSLQPEDFAVYFCSQGTHLPYTFGGGTKVEIKRTVAAPSVFIFPPSDEQLKSGTASVVCLLNNFYPREAKVQWKVDNALQSGNSQESVTEQDSKDSTYSLSSTLTLSKADYEKHKVYACEVTHQGLSSPVTKSFNRGEC
# heavy: not shown
# notes: Dual variable domain IgG1: outer anti-BCMA Fv, ASTKGP spacer, inner h38C2 Fv, human IgG1 and kappa constant domains
# B2: Anti-SLAMF7 DVD-IgG1 (1) (antibody)
# light: DIQMTQSPSSLSASVGDRVTITCKASQDVGIAVAWYQQKPGKVPKLLIYWASTRHTGVPDRFSGSGSGTDFTLTISSLQPEDVATYYCQQYSSYPYTFGQGTKVEIKASTKGPELQMTQSPSSLSASVGDRVTITCRSSQSLLHTYGSPYLNWYLQKPGQSPKLLIYKVSNRFSGVPSRFSGSGSGTDFTLTISSLQPEDFAVYFCSQGTHLPYTFGGGTKVEIKRTVAAPSVFIFPPSDEQLKSGTASVVCLLNNFYPREAKVQWKVDNALQSGNSQESVTEQDSKDSTYSLSSTLTLSKADYEKHKVYACEVTHQGLSSPVTKSFNRGEC
# heavy: not shown
# notes: Dual variable domain IgG1: outer anti-SLAMF7 Fv, ASTKGP spacer, inner h38C2 Fv, human IgG1 and kappa constant domains
# B3: Anti-CD138 DVD-IgG1 (3) (antibody)
# light: DIQMTQSTSSLSASLGDRVTISCSASQGINNYLNWYQQKPDGTVELLIYYTSTLQSGVPSRFSGSGSGTDYSLTISNLEPEDIGTYYCQQYSKLPRTFGGGTKLEIKASTKGPELQMTQSPSSLSASVGDRVTITCRSSQSLLHTYGSPYLNWYLQKPGQSPKLLIYKVSNRFSGVPSRFSGSGSGTDFTLTISSLQPEDFAVYFCSQGTHLPYTFGGGTKVEIKRTVAAPSVFIFPPSDEQLKSGTASVVCLLNNFYPREAKVQWKVDNALQSGNSQESVTEQDSKDSTYSLSSTLTLSKADYEKHKVYACEVTHQGLSSPVTKSFNRGEC
# heavy: not shown
# notes: Dual variable domain IgG1: outer anti-CD138 Fv, ASTKGP spacer, inner h38C2 Fv, human IgG1 and kappa constant domains
# B4: h38C2 IgG1 (antibody, V domains shown)
# VH: EVQLVESGGGLVQPGGSLRLSCAASGFTFSNYWMSWVRQSPEKGLEWVSEIRLRSDNYATHYAESVKGRFTISRDNSKNTLYLQMNSLRAEDTGIYYCKTYFYSFSYWGQGTLVTVSS
# VL: ELQMTQSPSSLSASVGDRVTITCRSSQSLLHTYGSPYLNWYLQKPGQSPKLLIYKVSNRFSGVPSRFSGSGSGTDFTLTISSLQPEDFAVYFCSQGTHLPYTFGGGTKVEIKR
# notes: also called humanized 38C2 IgG1
# Assays:
# [1] = target: T1, human B-cell maturation antigen (BCMA) (human, UniProt Q02223 1-184); experiment: flow cytometry on cells; cell line and concentration not printed on the sheet (methods paragraph 609)
# T1 construct: whole, on cells; Cell surface antigen targeted on human MM cell lines in flow cytometry
# T1 sequence (looked up): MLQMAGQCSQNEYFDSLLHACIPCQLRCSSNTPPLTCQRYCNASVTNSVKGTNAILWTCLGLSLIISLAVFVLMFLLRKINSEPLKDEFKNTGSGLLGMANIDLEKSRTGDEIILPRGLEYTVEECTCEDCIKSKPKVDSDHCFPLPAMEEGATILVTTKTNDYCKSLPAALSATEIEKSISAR
# Protocol: Flow cytometry: During the process of flow cytometry, 100,000 cells were dispensed in each well of a V-bottom 96-well plate (Corning) and washed with 150 μL of flow cytometry buffer (PBS, 2% (v/v) FBS, 0.01% (w/v) NaN₃, pH 7.4). Subsequently, the cells were incubated with the antibodies (200 nM in 50 μL PBS) for 1 h on ice, followed by 3 rounds of washing (200 μL flow buffer). Finally, the cells were stained with R-Phycoerythrin AffiniPure F(ab′)₂ Fragment Goat Anti-Human IgG, F(ab′)₂ fragment specific (for Fabs and IgG1 or IgG1 ARCs), or R-Phycoerythrin AffiniPure F(ab′)₂ Fragment Donkey Anti-Human IgM, Fc5μ fragment specific (IgM or IgM ARCs) purchased from Jackson ImmunoResearch Laboratories for 30 min on ice. After 3 rounds of washing, the cells were passed through a BD FACSCanto™ II and the data were extracted and analyzed via FlowJo software.
# human SLAMF7 [2] = target: T2, human SLAMF7 (human, UniProt Q9NQ25 23-335); experiment: flow cytometry on MM cell lines U-266, NCI-H929, RPMI-8226; DVD-IgG1 at 20 nM, Alexa Fluor 647 anti-human Fc; curve assigned by grey tone only
# T2 construct: whole, on cells; Cell surface antigen targeted on human MM cell lines in flow cytometry; also called CS-1
# Protocol: (§1) Flow cytometry: In a V-bottom 96-well plate (Corning), 100,000 cells per well were dispensed. The cells were washed with 200 μL flow cytometry buffer (PBS, 2% (v/v) FBS, 0.01% (w/v) NaN₃, pH 7.4), incubated with DVD-IgG1 or IgG1 (50 μL of a 20 nM solution in PBS) for 30 min on ice, washed with 200 μL ice-cold flow cytometry buffer, and stained with Alexa Fluor 647 conjugated polyclonal (Fab′)₂ donkey anti-human Fc (Jackson ImmunoResearch Laboratories) for 20 min on ice. After washing twice with 200 μL ice-cold flow cytometry buffer, the cells were analyzed using a Canto II Flow Cytometer (Becton-Dickinson). Data were analyzed using FlowJo software (Tree Star).
# human CD138 [3] = target: T3, human CD138 (human, UniProt P18827 23-310); experiment: flow cytometry on MM cell lines U-266, NCI-H929, RPMI-8226; DVD-IgG1 at 20 nM, Alexa Fluor 647 anti-human Fc
# T3 construct: whole, on cells; Cell surface antigen targeted on human MM cell lines in flow cytometry
# T3 sequence (looked up): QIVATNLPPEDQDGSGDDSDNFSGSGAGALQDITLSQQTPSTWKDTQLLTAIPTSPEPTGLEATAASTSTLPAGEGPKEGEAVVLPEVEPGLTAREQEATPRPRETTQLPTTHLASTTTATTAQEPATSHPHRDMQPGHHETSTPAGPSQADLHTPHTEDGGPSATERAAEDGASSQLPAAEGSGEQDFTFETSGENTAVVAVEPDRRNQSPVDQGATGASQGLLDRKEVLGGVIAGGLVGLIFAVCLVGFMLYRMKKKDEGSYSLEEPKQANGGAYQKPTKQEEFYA
# Protocol: as §1
# human CD138 [4] = target: T3, human CD138; experiment: flow cytometry on MM cell lines U-266, NCI-H929, RPMI-8226; negative control
# Protocol: as §1
# human SLAMF7 [5] = target: T2, human SLAMF7; experiment: as above
# Protocol: as §1
binder,measurement,setting,value
B1,binding result,[1],binds
B2,binding result,human SLAMF7 [2],binds
B3,binding result,human CD138 [3],binds
B4,binding result,human CD138 [4],no binding (tested: 20 nM (single concentration))
same,binding result,human SLAMF7 [5],no binding (tested: 20 nM (single concentration))
